From patent publication US20240026017A1 (Kyowa Kirin, published 2024) come the findings set out here.

B1: hzKM5916 LV0HV1 antibody (antibody, V domains shown)
VH: QVQLQESGGGLVKPGGSLKLSCAASGFTFSRNAMSWVRQTPDKRLEWVAYISSGSDYIYYADTVKGRFTISRDNAKNTLYLQMSSLKSEDTAMYYCTRFSYGYGKNAPDYWGQGTMVTVSS
VL: DIQMTQSPSSLSASVGDRVTITCKASQDINKYIAWYQQKPGKAPKLLIHYTSSLQPGVPSRFSGSGSGTDFSFTISSLQPEDLATYYCLQYDYTMTFGGGTKVEIK
notes: humanized; also called hzmAb5916 LV0HV1
B2: hzKM5916 LV2HV1 antibody (antibody, V domains shown)
VH: QVQLQESGGGLVKPGGSLKLSCAASGFTFSRNAMSWVRQTPDKRLEWVAYISSGSDYIYYADTVKGRFTISRDNAKNTLYLQMSSLKSEDTAMYYCTRFSYGYGKNAPDYWGQGTMVTVSS
VL: DIQMTQSPSSLSASVGDRVTITCKASQDINKYIAWYQHKPGKGPKLLIHYTSSLQPGVPSRFSGSGSGTDFSFTISSLQPEDLATYYCLQYDYTMTFGGGTKVEIK
notes: humanized; also called hzmAb5916 LV2HV1
B3: hzKM5916 LV0HV3 antibody (antibody, V domains shown)
VH: QVQLQESGGGLVKPGGSLKLSCAASGFTFSRNAMSWVRQTPEKRLEWVAYISSGSDYIYYADTVKGRFTISRDNAKNTLYLQMSSLRSEDTAMYYCTRFSYGYGKNAPDYWGQGTMVTVSS
VL: DIQMTQSPSSLSASVGDRVTITCKASQDINKYIAWYQQKPGKAPKLLIHYTSSLQPGVPSRFSGSGSGTDFSFTISSLQPEDLATYYCLQYDYTMTFGGGTKVEIK
notes: humanized; also called hzmAb5916 LV0HV3
B4: hzKM5916 LV2HV3 antibody (antibody, V domains shown)
VH: QVQLQESGGGLVKPGGSLKLSCAASGFTFSRNAMSWVRQTPEKRLEWVAYISSGSDYIYYADTVKGRFTISRDNAKNTLYLQMSSLRSEDTAMYYCTRFSYGYGKNAPDYWGQGTMVTVSS
VL: DIQMTQSPSSLSASVGDRVTITCKASQDINKYIAWYQHKPGKGPKLLIHYTSSLQPGVPSRFSGSGSGTDFSFTISSLQPEDLATYYCLQYDYTMTFGGGTKVEIK
notes: humanized; also called hzmAb5916 LV2HV3
B5: hzKM5916 LV0HV0 antibody (antibody, V domains shown)
VH: QVQLQESGGGLVKPGGSLKLSCAASGFTFSRNAMSWVRQTPDKRLEWVAYISSGSDYIYYADTVKGRFTISRDNAKNTLYLQMSSLKSEDTAMYYCARFSYGYGKNAPDYWGQGTMVTVSS
VL: DIQMTQSPSSLSASVGDRVTITCKASQDINKYIAWYQQKPGKAPKLLIHYTSSLQPGVPSRFSGSGSGTDFSFTISSLQPEDLATYYCLQYDYTMTFGGGTKVEIK
notes: humanized; also called hzmAb5916 LV0HV0
B6: hzKM5907 LV1cHV7 antibody (antibody, V domains shown)
VH: EVQVLESGGGLVQPGGSLRLSCAASGFTFSRYGMSWVRQAPGKRLEWVASISATFTYTYYTDNVKGRFTISRDNSKNTLYLQMNSLRAEDTGMYYCTRQDNYAWFDSWGQGTLVTVSS
VL: DIVMTQTPLSLPVTSGEPVSISCRSSQSIVHSNGNTFLEWYLQKPGQSPQLLIYKVSSRFSGVPDRFSGSGSGTDFTLKISRVEAEDVGVYYCFQGSHIPWTFGGGTKVEIK
notes: humanized; also called hzmAb5907 LV1cHV7
B7: hzKM5907 LV2bHV0 antibody (antibody, V domains shown)
VH: EVQLLESGGGLVQPGGSLRLSCAASGFTFSRYGMSWVRQAPGKGLEWVSSISATFTYTYYTDNVKGRFTISRDNSKNTLYLQMNSLRAEDTAVYYCAKQDNYAWFDSWGQGTLVTVSS
VL: DIVMTQTPLSLPVTSGEPVSISCRSSQSIVHSNGNTFLEWYLKKPGQSPQLLIYKVSSRFSGVPDRFSGSGSGTDFTLKISRVEAEDVGVYYCFQGSHIPWTFGGGTKVEIK
notes: humanized; also called hzmAb5907 LV2bHV0
B8: hzKM5907 LV2bHV4 antibody (antibody, V domains shown)
VH: EVQLLESGGGLVQPGGSLRLSCAASGFTFSRYGMSWVRQAPGKGLEWVASISATFTYTYYTDNVKGRFTISRDNSKNTLYLQMNSLRAEDTGVYYCTRQDNYAWFDSWGQGTLVTVSS
VL: DIVMTQTPLSLPVTSGEPVSISCRSSQSIVHSNGNTFLEWYLKKPGQSPQLLIYKVSSRFSGVPDRFSGSGSGTDFTLKISRVEAEDVGVYYCFQGSHIPWTFGGGTKVEIK
notes: humanized; also called hzmAb5907 LV2bHV4
B9: hzKM5907 LV4HV7 antibody (antibody, V domains shown)
VH: EVQVLESGGGLVQPGGSLRLSCAASGFTFSRYGMSWVRQAPGKRLEWVASISATFTYTYYTDNVKGRFTISRDNSKNTLYLQMNSLRAEDTGMYYCTRQDNYAWFDSWGQGTLVTVSS
VL: DIVMTQTPLSLPVTLGEPVSISCRSSQSIVHSNGNTFLEWYLKKPGQSPKLLIYKVSSRFSGVPDRFSGSGSGTDFTLKISRVEAEDVGVYYCFQGSHIPWTFGGGTKVEIK
notes: humanized; also called hzmAb5907 LV4HV7
B10: hzKM5907 LV2bHV1 antibody (antibody, V domains shown)
VH: EVQLLESGGGLVQPGGSLRLSCAASGFTFSRYGMSWVRQAPGKRLEWVSSISATFTYTYYTDNVKGRFTISRDNSKNTLYLQMNSLRAEDTAVYYCAKQDNYAWFDSWGQGTLVTVSS
VL: DIVMTQTPLSLPVTSGEPVSISCRSSQSIVHSNGNTFLEWYLKKPGQSPQLLIYKVSSRFSGVPDRFSGSGSGTDFTLKISRVEAEDVGVYYCFQGSHIPWTFGGGTKVEIK
notes: humanized; also called hzmAb5907 LV2bHV1
B11: hzKM5907 LV2aHV7 antibody (antibody, V domains shown)
VH: EVQVLESGGGLVQPGGSLRLSCAASGFTFSRYGMSWVRQAPGKRLEWVASISATFTYTYYTDNVKGRFTISRDNSKNTLYLQMNSLRAEDTGMYYCTRQDNYAWFDSWGQGTLVTVSS
VL: DIVMTQTPLSLPVTSGEPASISCRSSQSIVHSNGNTFLEWYLKKPGQSPKLLIYKVSSRFSGVPDRFSGSGSGTDFTLKISRVEAEDVGVYYCFQGSHIPWTFGGGTKVEIK
notes: humanized; also called hzmAb5907 LV2aHV7
B12: hzKM5907 LV2aHV0 antibody (antibody, V domains shown)
VH: EVQLLESGGGLVQPGGSLRLSCAASGFTFSRYGMSWVRQAPGKGLEWVSSISATFTYTYYTDNVKGRFTISRDNSKNTLYLQMNSLRAEDTAVYYCAKQDNYAWFDSWGQGTLVTVSS
VL: DIVMTQTPLSLPVTSGEPASISCRSSQSIVHSNGNTFLEWYLKKPGQSPKLLIYKVSSRFSGVPDRFSGSGSGTDFTLKISRVEAEDVGVYYCFQGSHIPWTFGGGTKVEIK
notes: humanized; also called hzmAb5907 LV2aHV0
B13: hzKM5907 LV2bHV2b antibody (antibody, V domains shown)
VH: EVQLLESGGGLVQPGGSLRLSCAASGFTFSRYGMSWVRQAPGKGLEWVASISATFTYTYYTDNVKGRFTISRDNSKNTLYLQMNSLRAEDTAVYYCARQDNYAWFDSWGQGTLVTVSS
VL: DIVMTQTPLSLPVTSGEPVSISCRSSQSIVHSNGNTFLEWYLKKPGQSPQLLIYKVSSRFSGVPDRFSGSGSGTDFTLKISRVEAEDVGVYYCFQGSHIPWTFGGGTKVEIK
notes: humanized; also called hzmAb5907 LV2bHV2b
B14: hzKM5907 LV2bHV3c antibody (antibody, V domains shown)
VH: EVQLLESGGGLVQPGGSLRLSCAASGFTFSRYGMSWVRQAPGKRLEWVSSISATFTYTYYTDNVKGRFTISRDNSKNTLYLQMNSLRAEDTGVYYCTKQDNYAWFDSWGQGTLVTVSS
VL: DIVMTQTPLSLPVTSGEPVSISCRSSQSIVHSNGNTFLEWYLKKPGQSPQLLIYKVSSRFSGVPDRFSGSGSGTDFTLKISRVEAEDVGVYYCFQGSHIPWTFGGGTKVEIK
notes: humanized; also called hzmAb5907 LV2bHV3c
B15: hzKM5907 LV2bHV3b antibody (antibody, V domains shown)
VH: EVQLLESGGGLVQPGGSLRLSCAASGFTFSRYGMSWVRQAPGKRLEWVASISATFTYTYYTDNVKGRFTISRDNSKNTLYLQMNSLRAEDTAVYYCTKQDNYAWFDSWGQGTLVTVSS
VL: DIVMTQTPLSLPVTSGEPVSISCRSSQSIVHSNGNTFLEWYLKKPGQSPQLLIYKVSSRFSGVPDRFSGSGSGTDFTLKISRVEAEDVGVYYCFQGSHIPWTFGGGTKVEIK
notes: humanized; also called hzmAb5907 LV2bHV3b
B16: hzKM5907 LV4HV0 antibody (antibody, V domains shown)
VH: EVQLLESGGGLVQPGGSLRLSCAASGFTFSRYGMSWVRQAPGKGLEWVSSISATFTYTYYTDNVKGRFTISRDNSKNTLYLQMNSLRAEDTAVYYCAKQDNYAWFDSWGQGTLVTVSS
VL: DIVMTQTPLSLPVTLGEPVSISCRSSQSIVHSNGNTFLEWYLKKPGQSPKLLIYKVSSRFSGVPDRFSGSGSGTDFTLKISRVEAEDVGVYYCFQGSHIPWTFGGGTKVEIK
notes: humanized; also called hzmAb5907 LV4HV0
B17: hzKM5907 LV2bHV7 antibody (antibody, V domains shown)
VH: EVQVLESGGGLVQPGGSLRLSCAASGFTFSRYGMSWVRQAPGKRLEWVASISATFTYTYYTDNVKGRFTISRDNSKNTLYLQMNSLRAEDTGMYYCTRQDNYAWFDSWGQGTLVTVSS
VL: DIVMTQTPLSLPVTSGEPVSISCRSSQSIVHSNGNTFLEWYLKKPGQSPQLLIYKVSSRFSGVPDRFSGSGSGTDFTLKISRVEAEDVGVYYCFQGSHIPWTFGGGTKVEIK
notes: humanized; also called hzmAb5907 LV2bHV7

In this assay the target is T1, human CC chemokine receptor 1 (human CCR1) (human, UniProt P32246 1-355).
T1 construct: endogenous on THP-1 cells in the migration assays; also called hCCR1; CHO-S-hCCR1 (expressing cells)
T1 sequence: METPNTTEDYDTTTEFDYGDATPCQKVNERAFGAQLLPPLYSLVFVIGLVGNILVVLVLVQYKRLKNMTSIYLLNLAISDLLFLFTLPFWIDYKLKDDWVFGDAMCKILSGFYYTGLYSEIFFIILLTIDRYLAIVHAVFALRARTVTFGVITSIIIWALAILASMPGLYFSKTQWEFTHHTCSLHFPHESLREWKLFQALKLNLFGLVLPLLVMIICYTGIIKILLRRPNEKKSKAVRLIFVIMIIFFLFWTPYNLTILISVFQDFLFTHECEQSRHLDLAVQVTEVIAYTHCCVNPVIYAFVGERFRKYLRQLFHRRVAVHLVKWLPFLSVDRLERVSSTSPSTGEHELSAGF
The experiment in a line: flow cytometry on CHO-S-hCCR1 cells; bound = fluorescence 10 times or more that of isotype control hzDNP1. As to the method: The antigen affinity of the chKM5908′ antibody, which is a VL-substituted chimeric antibody, was measured by flow cytometry using the CHO-S-hCCR1 cells produced in Example 2. The cells were collected by centrifugation, the supernatant was removed, and the cells were suspended in PBS (Staining Medium, hereinafter, abbreviated as SM) containing 2% fetal bovine serum (FBS), 0.05% NaN₃, and 1 mM EDTA. Next, the cells were seeded in a 96-well plate so that the number of cells is 1×10⁵ per well, and the chKM5908′ antibody was added at each final concentration of 10,000, 2,000, 400, 80, 16, and 3.2 ng/mL, and the reaction was performed at 4° C. for 60 minutes. After washing the cells with SM, Goat F (ab′)₂ Anti-Human IgG PE (γ chain specific) (Southern Biotech) diluted 500-fold with SM was added and reacted at 4° C. for 60 minutes. After washing the cells with SM, the cells were resuspended in 50 μL of SM, and the fluorescence intensity was measured by the flow cytometry (FACS Canto II, BD Biosciences).
Next, a modified antibody was obtained using the method described in Example 12-(3). […] Hereinafter referred to as hzDNP1)] were determined to bind to the human CCR1.
(In flow cytometry, cells or beads pass a laser one at a time.)
Consider B1, for which the binding result is given as “binds”. For B2 the value was “binds”; for B3, “binds”; for B4, “binds”. Turning to B5, the binding result was “binds”. For B6 the value was “binds”; for B7, “binds”; for B8, “binds”. For B9 the value was “binds”. For B10 the value was “binds”. Take B11: the binding result is reported as “binds”. For B12 the value was “binds”.

As for B13, the binding result was “binds”. For the molecule B14, the binding result is reported as “binds”. The result for B15 reads “binds”. For the molecule B16, the binding result is “binds”. For B17 the value was “binds”.
